Data from article PMC12547303.
Numbering of substitutions follows the chain as printed.

Experiments:
[1] = target: T1, FLAG-tagged CNNM2 lacking the CBS-pair domain, CNNM2-ΔCBS(469–578) (mouse) (UniProt Q3TWN3)
T1 sequence: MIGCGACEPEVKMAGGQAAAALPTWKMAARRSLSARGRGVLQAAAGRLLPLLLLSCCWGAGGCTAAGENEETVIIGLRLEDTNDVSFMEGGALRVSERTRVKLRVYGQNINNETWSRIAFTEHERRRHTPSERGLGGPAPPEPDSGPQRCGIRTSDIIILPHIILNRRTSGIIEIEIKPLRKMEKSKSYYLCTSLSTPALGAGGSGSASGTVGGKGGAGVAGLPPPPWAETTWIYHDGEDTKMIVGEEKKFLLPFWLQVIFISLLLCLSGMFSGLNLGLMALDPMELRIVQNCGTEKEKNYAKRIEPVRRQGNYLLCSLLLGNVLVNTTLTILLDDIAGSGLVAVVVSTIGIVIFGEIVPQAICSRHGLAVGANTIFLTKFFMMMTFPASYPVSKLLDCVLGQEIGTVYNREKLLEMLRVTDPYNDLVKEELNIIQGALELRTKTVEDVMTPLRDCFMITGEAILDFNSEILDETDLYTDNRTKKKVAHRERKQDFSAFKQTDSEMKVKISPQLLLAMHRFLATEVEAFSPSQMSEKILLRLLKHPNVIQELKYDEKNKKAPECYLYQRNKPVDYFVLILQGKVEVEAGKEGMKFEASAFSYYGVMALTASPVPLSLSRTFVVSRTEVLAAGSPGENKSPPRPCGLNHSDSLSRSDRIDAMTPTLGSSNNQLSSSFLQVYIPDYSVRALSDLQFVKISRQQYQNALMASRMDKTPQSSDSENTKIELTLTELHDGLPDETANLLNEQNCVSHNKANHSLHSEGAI

CNNM2-S269P (mouse) = target: T2, CNNM2-S269P (mouse) (UniProt Q3TWN3)
T2 sequence: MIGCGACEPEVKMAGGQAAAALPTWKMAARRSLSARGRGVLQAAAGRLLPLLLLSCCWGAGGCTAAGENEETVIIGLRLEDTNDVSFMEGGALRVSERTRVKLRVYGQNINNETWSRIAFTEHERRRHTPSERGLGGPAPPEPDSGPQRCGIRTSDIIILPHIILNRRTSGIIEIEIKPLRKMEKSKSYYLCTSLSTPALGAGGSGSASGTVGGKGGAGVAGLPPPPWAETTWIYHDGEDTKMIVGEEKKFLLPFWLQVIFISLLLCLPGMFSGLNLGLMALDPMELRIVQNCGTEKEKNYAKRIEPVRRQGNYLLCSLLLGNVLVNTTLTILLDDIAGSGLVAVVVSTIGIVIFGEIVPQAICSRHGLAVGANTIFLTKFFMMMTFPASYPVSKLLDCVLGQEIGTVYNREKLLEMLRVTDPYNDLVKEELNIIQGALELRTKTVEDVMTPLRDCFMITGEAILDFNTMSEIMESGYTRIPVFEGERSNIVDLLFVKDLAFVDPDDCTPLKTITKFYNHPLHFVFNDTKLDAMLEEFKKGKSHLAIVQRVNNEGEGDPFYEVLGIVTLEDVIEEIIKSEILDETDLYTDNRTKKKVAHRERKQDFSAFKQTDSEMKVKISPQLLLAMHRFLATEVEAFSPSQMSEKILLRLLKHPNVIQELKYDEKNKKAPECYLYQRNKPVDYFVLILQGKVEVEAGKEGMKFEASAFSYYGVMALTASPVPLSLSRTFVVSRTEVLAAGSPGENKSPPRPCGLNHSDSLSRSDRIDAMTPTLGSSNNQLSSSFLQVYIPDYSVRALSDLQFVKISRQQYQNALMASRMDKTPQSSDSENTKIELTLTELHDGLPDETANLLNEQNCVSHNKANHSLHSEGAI

[2] = target: T3, CNNM2-H523K/S269P (mouse) (UniProt Q3TWN3)
T3 sequence: T2 sequence with H523K

B1: Myc-DDK tagged ARL15 (natural protein)
chain: MSDLRITEAFLYMDYLCFRALCCKGPPPARPEYDLVCIGLTGSGKTSLLSKLCSESPDNVVSTTGFSIKAVPFQNAILNVKELGGADNIRKYWSRYYQGSQGVIFVLDSASSEDDLEAARNELHSALQHPQLCTLPFLILANHQDKPAARSVQEIKKYFELEPLARGKRWILQPCSLDDMDALKDSFSQLINLLEEKDHEAVRM
[1]
  outward TRPM7 current density at +100 mV in 293-M7-ΔCNNM3/4 cells with CNNM2-ΔCBS, without vs with ARL15 (the value is with ARL15); not different: 330
CNNM2-S269P (mouse)
  outward TRPM7 current density at +100 mV in 293-M7-ΔCNNM3/4 cells with CNNM2-S269P, without vs with ARL15 (the value is with ARL15); marked reduction: 123
[2]
  outward TRPM7 current density at +100 mV in 293-M7-ΔCNNM3/4 cells with CNNM2-H523K/S269P, without vs with ARL15 (the value is with ARL15); not different: 294
